Here are results for one substance from patent EP0530937A1.

Assay [1] has as its target collagen receptor on human platelets (human). Put plainly: adhesion of platelets to a plate coated with collagen type I with 50 µl Superose-pool (0.5 mg protein/ml), 2 mM Mg2+.
For assay [2] the target is unchanged. Put plainly: adhesion of platelets to a plate coated with collagen type I with 10 µl Superose-pool (0.5 mg protein/ml), 2 mM Mg2+.
Assay [3] concerns the target collagen receptor on MTLn3 cells (rat mammary tumor cells) (rat). Put plainly: adhesion of 51Cr-labelled MTLn3 cells to wells coated with collagen type III with 10 µl Superose-pool (0.5 mg protein/ml).
The target is the same in assay [4]. Put plainly: adhesion of 51Cr-labelled MTLn3 cells to wells coated with collagen type III with 2 µl Superose-pool (0.5 mg protein/ml).
The target is the same in assay [5]. Put plainly: adhesion of 51Cr-labelled MTLn3 cells to wells coated with collagen type III with 5 µl Superose-pool (0.5 mg protein/ml).

Regarding “collagen-induced platelet aggregation inhibitor from saliva of Triatoma pallidipennis (as saliva or as partially purified "Superose"-pool)”, the adherent platelets per mm² (adherent platelets per mm²) in assay [1] came to 6500; in assay [2] it was 12000. Moreover, the cell attachment (cpm) in assay [3] was 1080 cpm; in assay [4], 2070 cpm; in assay [5] it was 1610 cpm.
